{"source": "patent US20230257714A1", "about": "“METHODS AND COMPOSITIONS FOR GENERATING HUMAN INDUCED MESENCHYMAL STEM CELLS” (SmartCella Solutions AB, priority 2022, published 2023)", "key": {"[1]": {"test_system": "iMSCs", "assay": "quantitative real-time PCR of immunomodulatory marker genes in iMSCs treated with immune stimulators", "assay_type": "cell-based, human", "details": "iMSCs 100k cells/sample; dsRNA 500 ng/sample or IFNr 10 ng/ml; 24 hours; particularly IDO1, TLR3 and HGF; control genes CD73, CD90, CD105 not upregulated; FIG. 5", "experimental": "In a first set of studies, iMSCs were treated with immune stimulators, either double-strand RNA (dsRNA) or recombinant human interferon gamma (IFNr)(R&D Systems, Cat. #35-IF-100). iMSCs (100k cells/sample) were cultured with dsRNA (500 ng/sample) or IFNr (10 ng/ml) for 24 hours. […] Immunostimulatory marker genes examined were: RIG1, TLR3, COX2, IDO1, HGF and TGF-beta. Control genes (for MSC surface markers) examined were: CD73, CD90 and CD105."}, "[2]": {"test_system": "iMSCs", "assay": "IL-10 secretion by iMSCs after IFNr treatment (ELISA)", "assay_type": "cell-based, human", "details": "IFNr 20 ng/mL or 50 ng/mL for three days; media supernatant; FIG. 7", "experimental": "In a third set of experiments, the production of the anti-inflammatory factor IL-10 by the iMSCs was examined after treatment with IFNr. iMSCs (50k cells/well of a 24 well plate; approx. 25,000 cells/cm^2) were treated with low concentration (20 ng/mL) or high concentration (50 ng/mL) IFNr for three days to stimulate secretion of IL-10. The control group was the same culture conditions but without IFNr treatment. After three days, media supernatant was collected and the level of IL-10 secretion was quantified by standard ELISA analysis (human IL-10 Quantikine ELISA kit, R&D Systems, Cat. #D1000B)."}}}
{"molecule": "IFNr: recombinant human interferon gamma (R&D Systems), immune stimulator (protein, UniProt P01579 24-161, looked up) Interferon gamma: QDPYVKEAENLKKYFNAGHSDVADNGTLFLGILKNWKEESDRKIMQSQIVSFYFKLFKNFKDDQSIQKSVETIKEDMNVKFFNSNKKKRDDFEKLTNYSVTDLNVQRKAIHELIQVMAELSPAAKTGKRKRSQMLFRG", "values": [{"measurement": "expression of genes associated with immunostimulation (RIG1, TLR3, COX2, IDO1, HGF, TGF-beta)", "setting": "[1]", "result": "increased expression"}, {"measurement": "secretion of IL-10 by iMSCs", "setting": "[2]", "result": "dose-dependent"}]}
